Data on one molecule can be found in patent CN116410306A (ATTOGEN BIOMEDICAL SUZHOU INC LTD, dated 2023).

Assay [1] addresses T1, HPV16 E6蛋白 (宫颈癌细胞株CaSki细胞内源表达) (HPV16, UniProt P03126 1-158).
T1 construct: whole, on cells; Intracellular protein in fixed cells (95% ethanol, EDTA heat retrieval), stained by immunocytochemistry; also called CaSki阳性标准对照细胞
As to the kind of experiment: immunocytochemistry on fixed CaSki cells, DAB.

The target of assay [2] is T2, FLAG-HPV6 E6 (HPV6, UniProt P06462 1-150).
T2 construct: Flag-E6 fusion protein from transfected 293T cell lysate, captured on a coated flag antibody
T2 chain: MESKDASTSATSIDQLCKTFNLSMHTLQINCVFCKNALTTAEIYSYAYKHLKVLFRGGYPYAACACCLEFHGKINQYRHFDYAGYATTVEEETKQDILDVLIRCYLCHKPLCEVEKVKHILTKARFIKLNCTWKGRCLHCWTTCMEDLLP
The assay can be described thus: sandwich ELISA: flag antibody capture of 293T lysate, A4F9 supernatant 1:1. (In general: An ELISA detects its analyte on a solid surface through an enzyme-linked reagent.)

Assay [3] concerns the target T3, FLAG-HPV11 E6 (HPV11, UniProt P04019 1-150).
T3 construct: Flag-E6 fusion protein from transfected 293T cell lysate, captured on a coated flag antibody
T3 sequence: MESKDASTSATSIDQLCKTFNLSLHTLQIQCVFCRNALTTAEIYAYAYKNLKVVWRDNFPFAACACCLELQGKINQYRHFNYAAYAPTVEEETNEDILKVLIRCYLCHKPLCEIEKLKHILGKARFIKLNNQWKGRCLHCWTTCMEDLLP
The description is as above.

In assay [4] the target is T4, HPV18 E6蛋白 (宫颈癌细胞株Hela细胞内源表达) (HPV18, UniProt P06463 1-158, limits assumed).
T4 construct: whole, on cells; Intracellular protein in fixed cells, stained by immunocytochemistry; HeLa cells were mixed into a pool of negative clinical samples
T4 sequence (P06463 whole entry): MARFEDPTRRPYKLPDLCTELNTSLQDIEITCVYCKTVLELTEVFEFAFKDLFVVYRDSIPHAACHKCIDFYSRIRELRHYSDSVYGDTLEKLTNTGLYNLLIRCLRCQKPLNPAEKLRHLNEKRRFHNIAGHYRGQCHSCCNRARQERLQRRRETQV
The assay can be described thus: immunocytochemistry on fixed HeLa cells mixed with a negative clinical pool, DAB.

The target of a further assay is T5, Flag-HPV16 E6 (HPV16, UniProt P03126 1-158).
T5 chain: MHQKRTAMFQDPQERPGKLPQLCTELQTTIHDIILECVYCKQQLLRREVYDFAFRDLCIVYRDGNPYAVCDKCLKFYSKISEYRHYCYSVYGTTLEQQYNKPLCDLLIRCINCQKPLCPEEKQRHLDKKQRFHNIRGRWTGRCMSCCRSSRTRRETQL
The assay can be described thus: sandwich ELISA: flag antibody capture of 293T lysate (fresh or liquid-based fixed).

The next assay addresses T6, FLAG-HPV18 E6 (HPV18, UniProt P06463 1-158).
T6 construct: Flag-E6 fusion protein from transfected 293T cell lysate, captured on a coated flag antibody; also called 可溶性蛋白HPV18 E6
The assay is described as above.

For assay [5], the target named is T2, FLAG-HPV6 E6. The assay can be described thus: sandwich ELISA; (HPV OD450 - 293T negative control)/HPV16 OD450, HPV16 E6 = 100%.
Assay [6] deals with T3, FLAG-HPV11 E6. The assay is described as above.
The target of assay [7] is T7, FLAG-HPV68 E6 (HPV68).
T7 construct: Flag-E6 fusion protein from transfected 293T cell lysate, captured on a coated flag antibody
The description is as above.

Assay [8] deals with T2, FLAG-HPV6 E6. The assay can be described thus: sandwich ELISA: flag antibody capture of Flag-E6 from 293T lysate, A4F9 supernatant 1:1.
Assay [9] addresses T3, FLAG-HPV11 E6. The description is as above.
The target of assay [10] is T7, FLAG-HPV68 E6. Described as above.

T6 sequence (P06463 whole entry, the tested form may be a part): as the sequence (P06463 whole entry) above

B1: 抗HPV E6兔源单克隆抗体 A4F9 (antibody, V domains shown)
VH: QEQLVESGGGLVQPEGSLTLTCTASGFSFSSSYWICWVRQAPGKGLEWIACIYSGDGDAYYASWAKGRFTISKTSSTTVTLQMTSLTAADTAAYFCARDRVYDSSSGHGLWGPGTLVTVSS
VL: DIVMTQTPFSVSAAAGGTVTINCQASENIYSNLAWYQQKPGQRPKLLIYGTSDLPSGVPSRFSGSGYGTEFTLTISDLECADAATYYCQSYYYRSSSAYGWDFGGGTEVVVK
notes: Rabbit monoclonal from single B cell cloning, tested as clone supernatant (rabbit IgG, detected with goat anti-rabbit-HRP); also called 克隆上清A4F9; A4F9克隆
As for B1, the binding result in assay [1] is listed as “binds”; in the assay with FLAG-HPV6 E6 [2], “no binding”; in the assay with FLAG-HPV11 E6 [3], “no binding”; in assay [4], “binds”; with Flag-HPV16 E6, “binds”; in the assay with FLAG-HPV18 E6, “binds”. In addition, the “%交叉活性” value with FLAG-HPV6 E6 [5] was -6.3%; with FLAG-HPV11 E6 [6], -5.2%; in the assay with FLAG-HPV68 E6 [7] it was 6.3%. Moreover, the figures for the OD450 with FLAG-HPV6 E6 [8], in the assay with FLAG-HPV11 E6 [9] and in the assay with FLAG-HPV68 E6 [10] were 0.1, 0.1 and 0.5, respectively.
